Data reported in patent US20180155451A1 (published 2018).

B1: GpH7-A5/GpH7-B3 variant K334_10E/GpL16-k0 (antibody, human IgG1, kappa)
heavy 1: not shown
heavy 2: not shown
light: DIVMTQSPLSLPVTPGEPASISCQASESLVHSNRNTYLHWYLQKPGQSPQLLIYKVSNRFSGVPDRFSGSGSGTDFTLKISRVEAEDVGVYYCSQNTHVPPTFGQGTKVEIERTVAAPSVFIFPPSDEQLKSGTASVVCLLNNFYPREAKVQWKVDNALQSGNSQESVTEQDSKDSTYSLSSTLTLSKADYEKHKVYACEVTHQGLSSPVTKSFNRGEC
notes: heterodimerized; also called He Ab K334_10E
B2: GpH7-A5/GpH7-B3 variant P238_15Y/GpL16-k0 (antibody, human IgG1, kappa)
heavy 1: not shown
heavy 2: not shown
light: B1 light
notes: heterodimerized; also called He Ab P238_15Y
B3: GpH7-A5/GpH7-B3 variant H268_08L/GpL16-k0 (antibody, human IgG1, kappa)
heavy 1: not shown
heavy 2: not shown
light: B1 light
notes: heterodimerized; also called He Ab H268_08L
B4: GpH7-A5/GpH7-B3 variant I336_02A/GpL16-k0 (antibody, human IgG1, kappa)
heavy 1: not shown
heavy 2: not shown
light: B1 light
notes: heterodimerized; also called He Ab I336_02A
B5: GpH7-A5/GpH7-B3 variant P271_04F/GpL16-k0 (antibody, human IgG1, kappa)
heavy 1: not shown
heavy 2: not shown
light: B1 light
notes: heterodimerized; also called He Ab P271_04F
B6: GpH7-A5/GpH7-B3 variant I332_12R/GpL16-k0 (antibody, human IgG1, kappa)
heavy 1: not shown
heavy 2: not shown
light: B1 light
notes: heterodimerized; also called He Ab I332_12R
B7: GpH7-A5/GpH7-B3 variant H268_05P/GpL16-k0 (antibody, human IgG1, kappa)
heavy 1: not shown
heavy 2: not shown
light: B1 light
notes: heterodimerized; also called He Ab H268_05P
B8: GpH7-A5/GpH7-B3 variant P238_10E/GpL16-k0 (antibody, human IgG1, kappa)
heavy 1: not shown
heavy 2: not shown
light: B1 light
notes: heterodimerized; also called He Ab P238_10E
B9: GpH7-A5/GpH7-B3 variant P238_04F/GpL16-k0 (antibody, human IgG1, kappa)
heavy 1: not shown
heavy 2: not shown
light: B1 light
notes: heterodimerized; also called He Ab P238_04F
B10: GpH7-A5/GpH7-B3 variant I336_10E/GpL16-k0 (antibody, human IgG1, kappa)
heavy 1: not shown
heavy 2: not shown
light: B1 light
notes: heterodimerized; also called He Ab I336_10E
B11: GpH7-A5/GpH7-B3 variant L328_19Q/GpL16-k0 (antibody, human IgG1, kappa)
heavy 1: not shown
heavy 2: not shown
light: B1 light
notes: heterodimerized; also called He Ab L328_19Q
B12: GpH7-A5/GpH7-B3 variant G236_02A/GpL16-k0 (antibody, human IgG1, kappa)
heavy 1: not shown
heavy 2: not shown
light: B1 light
notes: heterodimerized; also called He Ab G236_02A
B13: GpH7-A5/GpH7-B3 variant P238_06M/GpL16-k0 (antibody, human IgG1, kappa)
heavy 1: not shown
heavy 2: not shown
light: B1 light
notes: heterodimerized; also called He Ab P238_06M
B14: GpH7-A5/GpH7-B3 variant P271_20W/GpL16-k0 (antibody, human IgG1, kappa)
heavy 1: not shown
heavy 2: not shown
light: B1 light
notes: heterodimerized; also called He Ab P271_20W
B15: GpH7-A5/GpH7-B3 variant P271_02A/GpL16-k0 (antibody, human IgG1, kappa)
heavy 1: not shown
heavy 2: not shown
light: B1 light
notes: heterodimerized; also called He Ab P271_02A
B16: GpH7-A5/GpH7-B3 variant L328_14T/GpL16-k0 (antibody, human IgG1, kappa)
heavy 1: not shown
heavy 2: not shown
light: B1 light
notes: heterodimerized; also called He Ab L328_14T
B17: GpH7-A5/GpH7-B3 variant I336_06M/GpL16-k0 (antibody, human IgG1, kappa)
heavy 1: not shown
heavy 2: not shown
light: B1 light
notes: heterodimerized; also called He Ab I336_06M
B18: GpH7-A5/GpH7-B3 variant P271_13S/GpL16-k0 (antibody, human IgG1, kappa)
heavy 1: not shown
heavy 2: not shown
light: B1 light
notes: heterodimerized; also called He Ab P271_13S
B19: GpH7-A5/GpH7-B3 variant E333_13S/GpL16-k0 (antibody, human IgG1, kappa)
heavy 1: not shown
heavy 2: not shown
light: B1 light
notes: heterodimerized; also called He Ab E333_13S
B20: GpH7-A5/GpH7-B3 variant P271_07I/GpL16-k0 (antibody, human IgG1, kappa)
heavy 1: not shown
heavy 2: not shown
light: B1 light
notes: heterodimerized; also called He Ab P271_07I
B21: GpH7-A5/GpH7-B3 variant L234_15Y/GpL16-k0 (antibody, human IgG1, kappa)
heavy 1: not shown
heavy 2: not shown
light: B1 light
notes: heterodimerized; also called He Ab L234_15Y; GpH7-A5/GpH7-B3-01-15Y/GpL16-k0
B22: GpH7-A5/GpH7-B3 variant L234_06M/GpL16-k0 (antibody, human IgG1, kappa)
heavy 1: not shown
heavy 2: not shown
light: B1 light
notes: heterodimerized; also called He Ab L234_06M
B23: GpH7-A5/GpH7-B3 variant K326_18N/GpL16-k0 (antibody, human IgG1, kappa)
heavy 1: not shown
heavy 2: not shown
light: B1 light
notes: heterodimerized; also called He Ab K326_18N
B24: GpH7-A5/GpH7-B3 variant P271_03V/GpL16-k0 (antibody, human IgG1, kappa)
heavy 1: not shown
heavy 2: not shown
light: B1 light
notes: heterodimerized; also called He Ab P271_03V
B25: GpH7-A5/GpH7-B3 variant K334_12R/GpL16-k0 (antibody, human IgG1, kappa)
heavy 1: not shown
heavy 2: not shown
light: B1 light
notes: heterodimerized; also called He Ab K334_12R
B26: GpH7-A5/GpH7-B3 variant K326_12R/GpL16-k0 (antibody, human IgG1, kappa)
heavy 1: not shown
heavy 2: not shown
light: B1 light
notes: heterodimerized; also called He Ab K326_12R
B27: GpH7-A5/GpH7-B3 variant E333_14T/GpL16-k0 (antibody, human IgG1, kappa)
heavy 1: not shown
heavy 2: not shown
light: B1 light
notes: heterodimerized; also called He Ab E333_14T
B28: GpH7-A5/GpH7-B3 variant E333_16H/GpL16-k0 (antibody, human IgG1, kappa)
heavy 1: not shown
heavy 2: not shown
light: B1 light
notes: heterodimerized; also called He Ab E333_16H
B29: GpH7-A5/GpH7-B3 variant P238_08L/GpL16-k0 (antibody, human IgG1, kappa)
heavy 1: not shown
heavy 2: not shown
light: B1 light
notes: heterodimerized; also called He Ab P238_08L

Biological target: T1, FcγRIa (human, UniProt P12314 16-292)
T1 construct: extracellular domain; also called FcgRI; CD64
Test: SPR; vs GpH7-A5/GpH7-B3/GpL16-k0=100

T1 sequence (P12314 16-292): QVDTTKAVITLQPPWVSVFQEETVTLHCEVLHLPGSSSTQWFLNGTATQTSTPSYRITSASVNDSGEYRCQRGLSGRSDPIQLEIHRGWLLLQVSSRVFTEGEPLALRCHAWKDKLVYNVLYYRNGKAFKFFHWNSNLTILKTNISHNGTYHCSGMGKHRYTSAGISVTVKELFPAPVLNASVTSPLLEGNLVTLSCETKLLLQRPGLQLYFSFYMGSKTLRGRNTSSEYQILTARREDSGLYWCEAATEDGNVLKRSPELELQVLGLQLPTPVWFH

| He/Con_1a | Binder |
| --- | --- |
| 110 % of control | B1 |
| 101 % of control | B2 |
| 107 % of control | B3 |
| 106 % of control | B4 |
| 102 % of control | B5 |
| 100 % of control | B6 |
| 109 % of control | B7 |
| 102 % of control | B8 |
| 101 % of control | B9 |
| 108 % of control | B10 |
| 101 % of control | B11 |
| 100 % of control | B12 |
| 102 % of control | B13 |
| 103 % of control | B14 |
| 104 % of control | B15 |
| 100 % of control | B16 |
| 108 % of control | B17 |
| 102 % of control | B18 |
| 103 % of control | B19 |
| 102 % of control | B20 |
| 100 % of control | B21 |
| 104 % of control | B22 |
| 105 % of control | B23 |
| 102 % of control | B24 |
| 104 % of control | B25 |
| 100 % of control | B26 |
| 102 % of control | B27 |
| 101 % of control | B28 |
| 101 % of control | B29 |
